Measured values from patent publication US20190077876A1 (AbbVie / Abbott, published 2019).
Residue numbers refer to the chain shown, from its start. Each block holds one molecule with its values, some of them ahead of it.

How the values were obtained:
[1] = biological target: T1, human CLDN9 protein (human, UniProt O95484 1-217); experiment: flow cytometry on cells overexpressing human CLDN9; 10 µg/mL control antibody, Alexa 647 anti-mouse secondary; single point
T1 sequence (looked up): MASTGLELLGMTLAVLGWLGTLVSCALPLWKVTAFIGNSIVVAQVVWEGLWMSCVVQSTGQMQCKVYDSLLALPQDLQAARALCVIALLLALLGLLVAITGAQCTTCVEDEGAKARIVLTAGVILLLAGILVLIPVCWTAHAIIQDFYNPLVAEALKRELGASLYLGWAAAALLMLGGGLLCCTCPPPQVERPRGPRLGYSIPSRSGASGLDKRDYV

[2] = biological target: T2, human CLDN4 protein (human, UniProt O14493 1-209); experiment: flow cytometry on cells overexpressing human CLDN4; 10 µg/mL control antibody, Alexa 647 anti-mouse secondary; single point
T2 sequence (looked up): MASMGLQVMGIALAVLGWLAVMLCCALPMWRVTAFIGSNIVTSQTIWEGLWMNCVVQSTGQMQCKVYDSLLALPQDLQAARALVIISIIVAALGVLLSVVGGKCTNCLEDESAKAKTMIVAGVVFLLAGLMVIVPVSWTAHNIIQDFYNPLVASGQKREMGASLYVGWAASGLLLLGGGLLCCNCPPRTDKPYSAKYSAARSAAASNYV

[3] = biological target: T3, human CLDN6 protein (human, UniProt P56747 1-220); experiment: flow cytometry on cells overexpressing human CLDN6; 10 µg/mL control antibody, Alexa 647 anti-mouse secondary; single point
T3 sequence (looked up): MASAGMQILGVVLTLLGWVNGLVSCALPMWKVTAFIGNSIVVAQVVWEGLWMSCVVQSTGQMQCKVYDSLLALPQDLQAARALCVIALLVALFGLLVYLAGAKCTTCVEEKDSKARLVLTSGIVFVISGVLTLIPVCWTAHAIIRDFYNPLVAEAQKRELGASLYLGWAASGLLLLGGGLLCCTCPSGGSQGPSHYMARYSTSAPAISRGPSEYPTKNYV

[4] = biological target: T2, human CLDN4 protein; experiment: flow cytometry on cells overexpressing human CLDN4; Alexa 647 anti-mouse secondary; single point
[5] = biological target: T1, human CLDN9 protein; experiment: flow cytometry on cells overexpressing human CLDN9; 10 µg/mL purified antibody, Alexa 647 anti-mouse secondary; single point
[6] = biological target: T2, human CLDN4 protein; experiment: flow cytometry on cells overexpressing human CLDN4; 10 µg/mL purified antibody, Alexa 647 anti-mouse secondary; single point
[7] = biological target: T1, human CLDN9 protein; experiment: cell-based or functional assay
[8] = biological target: T3, human CLDN6 protein; experiment: cell-based or functional assay
[9] = biological target: T3, human CLDN6 protein; experiment: flow cytometry on cells overexpressing human CLDN6; 10 µg/mL purified antibody, Alexa 647 anti-mouse secondary; single point
[10] = biological target: T1, human CLDN9 protein; experiment: flow cytometry on cells overexpressing human CLDN9; Alexa 647 anti-mouse secondary; single point
[11] = biological target: T2, human CLDN4 protein; experiment: cell-based or functional assay
[12] = biological target: T3, human CLDN6 protein; experiment: cell-based or functional assay; remark: listed apart in the source

B3: SC27.201 mouse monoclonal anti-CLDN antibody (antibody, V domains shown)
VL: DIQMTQSSSSFSVSLGDRVTITCKASEDIYNRLAWYQQKPGNAPRLLISGATSLEAGVPSGFSGSGSGKDYTLSITSLQTEDVATYYCQQYWSTPPTFGGGTKLELK
V domain: EVQLQQSGPELVKPGASVKISCKTSGYTFTENIRHWVKQSRGKSLEWIGTINPNNGETRYNQKFKGKATLTVDKSSSTAYMELRSLTSEDSAVYYCTRGITKSPYGMDYWGQGTSITVSS
- MFI [5]: 7100
- MFI [6]: 23100
- apparent IC50 of killing of HEK-293T cells overexpressing hCLDN4; antibody titrated 0.15 to 1000 nM with anti-mouse IgG Fab-saporin, CellTiter-Glo [11]: 69.7 nM
- apparent IC50 of killing of HEK-293T cells overexpressing hCLDN9; antibody titrated 0.15 to 1000 nM with anti-mouse IgG Fab-saporin, CellTiter-Glo [7]: 155 nM
- apparent IC50 of killing of HEK-293T cells overexpressing hCLDN6; antibody titrated 0.15 to 1000 nM with anti-mouse IgG Fab-saporin, CellTiter-Glo [8]: 48.2 nM
- MFI [9]: 29900

B4: SC27.203 (antibody, V domains shown)
VH: B3 V domain with R34I, R41H, T50G, N54I, E57G, R59S, T97A, K102T, G106A, I116V
VL: B3 VL with K39N, A43T, I48M, A56T, G61R, T80I, A84S, K103R, L106I
notes: also called SC27.203 mouse monoclonal anti-CLDN antibody
- MFI [5]: 587
- MFI [6]: 2980
- MFI [9]: 47400

B5: SC27.104 mouse monoclonal anti-CLDN antibody (antibody, V domains shown)
VH: EVQLQQSGPELVKPGASVKISCKTSGYTFTEYTVHWVKQSHGKSLEWIGGVYPKNGDTTYNQKFRGKATLTVDKSSNTAYMELRSLTSEDSAVYYCTGKDGYDGFAYWGQGTLVTVSA
VL: B3 VL with A56T, G61R, T94N, L106I
- MFI [5]: 7230
- MFI [6]: 22600
- apparent IC50 of killing of HEK-293T cells overexpressing hCLDN4; antibody titrated 0.15 to 1000 nM with anti-mouse IgG Fab-saporin, CellTiter-Glo [11]: 969 nM
- apparent IC50 of killing of HEK-293T cells overexpressing hCLDN6; antibody titrated 0.15 to 1000 nM with anti-mouse IgG Fab-saporin, CellTiter-Glo [8]: 284 nM
- MFI [9]: 39200

B6: SC27.106 (antibody, V domains shown)
VH: EVQLQQSGPELVKPGASVKISCKTSGYTFTEYTMHWVKQSHGKSLEWIGGINPNNGGTNYNQKFKGKATLTVDKSSSTAYMELRSLTSEDSAVYYCARRLITYYAMDYWGQGTSVTVSS
VL: B3 VL with S49C, A56T, G61R, P96L, G100A
notes: also called SC27.106 mouse monoclonal anti-CLDN antibody
- MFI [5]: 595
- MFI [6]: 1990
- MFI [9]: 55800

Now from value to molecule, other results behind:

- MFI [1]: 81
- MFI [2]: 73
- MFI [3]: 84
Molecule: mIgG2b control (antibody)

- binding result [4]: no binding (tested: 10 µg/mL)
- MFI [5]: 23000
- MFI [6]: 79
- MFI [9]: 106000
B1: SC27.204 mouse monoclonal anti-CLDN antibody (antibody, V domains shown)
VH: EVKVLESGGGLVQPGGSLKLSCAASGFDFSRYWMSWVRQAPGKGLEWIGEINPDSSTINYTPSLKAKFIISRDNAKNTLYLQMSKVRSEDTALYYCTGPAYWGQGTLVTVSA
VL: DIVMTQSQKFMSTSVGDRVSVACKAGQNVGTSVAWYQQKPGHSPKSLIYSASYRYSGVPNRFTGSGSGTDFTLTISNVQSEDLADYFCQQYITYPYTFGGGTKLEII
- apparent IC50 of killing of HEK-293T cells overexpressing hCLDN9; antibody titrated 0.15 to 1000 nM with anti-mouse IgG Fab-saporin, CellTiter-Glo [7]: 16.9 nM
- apparent IC50 of killing of HEK-293T cells overexpressing hCLDN6; antibody titrated 0.15 to 1000 nM with anti-mouse IgG Fab-saporin, CellTiter-Glo [8]: 25.2 nM

- binding result [4]: no binding (tested: 10 µg/mL)
- MFI [5]: 80
- MFI [6]: 69
- binding result [10]: no binding (tested: 10 µg/mL)
- MFI [9]: 83000
B2: SC27.105 mouse monoclonal anti-CLDN antibody (antibody, V domains shown)
VH: EVQLQQSGPELVKPGASVKISCKASGYSFTGYYMNWVKQSPEKSLEWIGEINPSTGSTTYNQKFKAKATLTVDKSSSTAYMQLKSLTSEDSAVYYCARRDYYYGSGFYAMDYWGQGTSVTVSS
VL: DVQMTQSPSSLSASLGERVSLTCQASQSVSNNLNWYQQTPGKAPRLLIYGASKLEDGVSSRFSGTGYGTDFTFTISSLEEEDVATYFCLQHRYLWTFGGGTKLEIK
- apparent IC50 of killing of HEK-293T cells overexpressing hCLDN6; antibody titrated 0.15 to 1000 nM with anti-mouse IgG Fab-saporin, CellTiter-Glo [8]: 235 nM

- binding result [4]: no binding (tested: 10 µg/mL)
- MFI [5]: 86
- MFI [6]: 88
- binding result [10]: no binding (tested: 10 µg/mL)
- MFI [9]: 99700
B7: SC27.108 mouse monoclonal anti-CLDN antibody (antibody, V domains shown)
VH: QVQMQQSGAELVRPGTSVKVSCKASGYAFTNYLIEWVKQRPGQGLEWIGLINPGSGGTNYNEKFKGKATLTADKSSTTAYMQLSSLTSDDSAVYFCARRSPLGSWIYYAYDGVAYWGQGTLVTVSA
VL: EIVLTQSPALMAASPGEKVTITCSVSSSISSSNLHWYQQKSGTSPKLWIYGTSNLASGVPVRFSGSGSGTSYSLTISNMEAEDAATYYCQQWSSYPHTFGGGTKLEIK
notes: also called SC27.109 (identical)
- apparent IC50 of saporin-mediated cell killing [12]: 100 nM
- apparent IC50 of killing of HEK-293T cells overexpressing hCLDN6; antibody titrated 0.15 to 1000 nM with anti-mouse IgG Fab-saporin, CellTiter-Glo [8]: 102 nM
